Data from patent publication US20080220450A1, “Population Based Prediction Methods for Immune Response Determinations and Methods for Verifying Immunological Response Data” (Danisco US, Inc., Genencor Division, priority 2004, published 2008).

Biological target: HLA-DR6(13) (human)
Assay: competition assay against a standard peptide on purified HLA class II

IC50: 0.69 nM
Substance: B. amyloliquifaciens subtilisin BPN' Y217L epitope peptide, amino acids 70-84 (from UniProt P00782 177-191)
